Results from paper PMC5951680.

Biological target: zebrafish TRPC4 (TRPC4DR) (Danio rerio (zebrafish))
Assay: cryo-EM structure; TRPC4DR in amphipols A8-35, unliganded (apo), closed state; buffer C (PBS pH 7.4, 1 mM TCEP); 0.25 mg/ml on the grid; C4 symmetry imposed; 3.6 Å

stoichiometry N: 4
Substance: zebrafish TRPC4 (TRPC4DR) (natural protein)
